We go through 19 molecules from patent US20240076370A1 (Memorial Sloan Kettering, published 2024).

B1: ET150-165 scFv (scFv)
scFv: QSALTQPPSASGSPGQSVTISCTGTSSDIGGYNYVSWYQQHPGKAPKLMIYEVNKRPSGVPDRFSGSKSGNTASLTVSGLQAEDEADYYCASFAGRKTLVFGGGTKLTVLGSRGGGGSGGGGSGGGGSLEMAQVQLVQSGAEVKKPGASVKVSCRASGYTFTAYSLHWVRQAPGQGLEWMGWINPSSGGAVYAQKFQGRVTMTRDTSISTAYMELSGLRSDDTAVYYCARNVGGQADDWGQGTLVTVSS
notes: also called ET150-15 scFv
B2: ET150-167 scFv (scFv)
scFv: QSALTQPPSASGSPGQSVTISCTGTSTDIGGYNYVSWYQHHPSKAPKLMIYEVNKRPSGVPDRFSGSKSGNTASLTVSGLQAEDEADYYCASFAGRKTLVFGGGTKLTVLGSRGGGGSGGGGSGGGGSLEMAQVQLVQSGAEVKKPGASVKVSCRASGYTFTAYSLHWVRQAPGQGLEWMGWINPSSGGAVYAQKFQGRVTMTRDTSISTAYMELSGLRSDDTAVYYCARNVGGHADDWGQGTLVTVSS
notes: also called ET150-17 scFv
B3: ET150-166 scFv (scFv)
scFv: NFMLTQPHSVSESPGKTVSISCTRTSGAIAGAYVQWFQQRPGSAPTTVIYDDNKRPSGVPDRFSGSIDKSSNSASLTISGLKTEDEADYYCQSYDYDSSNVLFGGGTKLTVLGSRGGGGSGGGGSGGGGSLEMAEVQLVESGGGLVQPGGSLRLSCAASGFTFSNYAMSWVRQAPGKGLEWVSAISGSGNTYYADSVKGRFTISRDNSKNTLYLQMNSLRAEDTAVYYCARGSVRYTDIWGQGTLVTVSS
notes: also called ET150-16 scFv
B4: ET150-032 scFv (scFv)
scFv: AELQSVLTQPPSASGSPGQSLTISCTGTSSDVGGYNHVSWYQQYPGKAPKLMIYEVTKRPSGVPDRFSGSKSGNTASLTVSGLQAEDEADYYCSSYAGSAHWVFGGGTKLTVLGSRGGGGSGGGGSGGGGSLEMAEVQLVQSGAEVKKPGASVKVSCKASGYTFSRYYIHWVRQAPGQGLEWMGWMNPNSGNTGYAQKFQGRVTMTRNTSISTAYMELSSLRSEDTAVYYCARGRYHVIDYWGQGTLVTVSS
notes: also called ET150-182 scFv
B5: ET150-161 scFv (scFv)
scFv: SYVLTQPPSASGTPGQRVTISCSGSSSNIGSNTVNWYQQLPGTAPKLLIYRNNQRPSGVPDRFSGSKSGTSASLAISGLRSEDEADYYCAAWDDSLSGLFGTGTKVTVLGSRGGGGSGGGGSGGGGSLEMAQMQLVQSGAEVKKPGASVKVSCKASEYTFTRHILHWVRQAPGQSLEWMGWINPGNGNTKYSQKFQVRVTFTRDTSASTVYMELSSLRSEDTAVYYCARLPDQWGQGTLVTVSS
notes: also called ET150-11 scFv
B6: ET150-033 scFv (scFv)
scFv: AELQAVLTQPPSASGTPGQRVTISCSGSSSNIGSNYVYWYQQLPGTAPKLLIYRNNQRPSGVPDRFSGSKSGTSASLAISGLRSEDEADYYCAAWDDSLSGRVFGTGTKVTVLGSRGGGGSGGGGSGGGGSLEMAQLQLVQSGAEVKKPGSSVKVSCKASGYTFNTYYLHWVRQAPGQGLEWMGRINPNNGGTNYAQKFQGRVTMTRDTSINTAYMELSRLRSDDTAVYYCARSYDYWGQGTLVTVSS
notes: also called ET150-183 scFv
B7: ET150-173 scFv (scFv)
scFv: QSALTQPASVSGSPGQSITISCTGTSSDVGGYNYVSWYQQSPGKAPRLMIYGVSKRPSGVPDRFSGSKSGNTASLTVSGLQAEDEADYYCSSYAGVNNLMFGGGTKLTVLGSRGGGGSGGGGSGGGGSLEMAQVQLVQSGAEVKKPGASVKVSCKASGYTFTSYYMHWVRQAPGQGLEWMGIINPSGGSTSYAQKFQGRVTMTRDTSTSTVYMELSSLRSEDTAVYYCARDVISGFDSWGQGTLVTVSS
notes: also called ET150-23 scFv
B8: ET150-028 scFv (scFv)
scFv: AELQPVLTQPPSASGTPGQRVTISCSGSSSNIGGNTVSWYQQVPGTAPRLLIFRNNQRPPGVPDRFSGSKSGTSASLAISGLRSEDEADYYCAAWDASRQGVFGGGTKLTVLGSRGGGGSGGGGSGGGGSLEMAQVQLVQSGAEVKKPGSSVKVSCKASGGTFRSYAITWVRQAPGQGLEWMGRIIPMLDITNYAQKFQGRVTITADKSTSTAYMELSSLRSEDTAVYYCARTYSRSPFHMEDFWGQGTLVTVSS
notes: also called ET150-178 scFv
B9: ET150-153 scFv (scFv)
scFv: QSVLTQPPSVSAAPGQKVTIPCSGSRSNVGNYYVSWYQQLPGTAPKLLIYDNNKRPSGIPDRFSGSKSGTSATLGITGLQTGDEADYFCGTWDGSLSAHVFGTGTKVTVLGSRGGGGSGGGGSGGGGSLEMAQVQLVQSGSELKKPGASVRVSCTASGYTFTSYYMHWVRQAPGQGLEWMGVINPNAGSTRYAQKFQGRVTMSTDTSTSTAYMDLSSLRSEDTAVYYCARGMYRSLLFYDPWGQGTLVTVSS
notes: also called ET150-3 scFv
B10: ET150-169 scFv (scFv)
scFv: QSVVTQPPSVSAAPGQKVTISCSGSSSNIGNNYVSWYQQLPGTAPKLLIYDNNKRPSGIPDRFSGSKSGTSATLGITGLQTGDEADYYCGTWDSSLSGVVFGGGTKLTVLGSRGGGGSGGGGSGGGGSLEMAQVQLVQSGGEVKKPGASVKVSCKASGFTFNTYGISWVRQAPGQGLEWMGWISANNGHTKSAQRFQDRVAMATDTSTSTAYMELRSLKFDDTAVYYCARGGYHHQMQRYYKATSVYSDYWGQGTLVTVSS
notes: also called ET150-19 scFv
B11: ET150-164 scFv (scFv)
scFv: QSALTQPPSASGSPGQSVTISCTGTSSDVGGYNYVSWYQQHPGKAPKLMIYEVSKRPSGVPDRFSGSKSGNTASLTVSGLQAEDEADYYCSSYAGSNTLVFGGGTKLTVLGSRGGGGSGGGGSGGGGSLEMAQMQLVQSGAEVKKPGASVKVSCKASGYTFTSYYMHWVRQAPGQGLEWMGIINPSGGSTSYAQKFQGRVTMTRDTSTSTVYMELSSLRSEDTAVYYCARAGMGMDTWGQGTLVTVSS
notes: also called ET150-14 scFv
B12: ET150-172 scFv (scFv)
scFv: QSALTQPPSASGSPGQSVTISCTGTSSDVGGYNYVSWYQQHPGKAPKLMIYEVSKRPSGVPDRFSGSKSGNTASLTVSGLQAEDEADYYCSSYAGSNTLVFGGGTKLTVLGSRGGGGSGGGGSGGGGSLEMAQMQLVQSGAEVKKPGASVKVSCKASGYTFTSYYMHWVRQAPGQGLEWMGIINPSGGSSSYAQKFQGRVTMTRDTSTSTVYMELSSLRSEDTAVYYCARAGMGMDTWGQGTLVTVSS
notes: also called ET150-22 scFv
B13: ET150-162 scFv (scFv)
scFv: QSALTQPPSASGSPGQSVTISCTGTSRDAGGYNYFSWYQQHPGKAPKLLIYEVTKRPSGVPDRFSGSKSGKTASLTVSGLQADDEAVYYCSSYGGSNNFRVFGGGTKLTVLGSRGGGGSGGGGSGGGGSLEMAEVQLVESGGGVVRPGGSLRLSCAASGFTFGDYGMSWVRQAPGKGLEWVSGINWNGGSTGYADSVKGRFTISRDNAKNSLYLQMNSLRAEDTAVYYCARSKQDYWGQGTLVTVSS
notes: also called ET150-12 scFv
B14: ET150-171 scFv (scFv)
scFv: QSALTQPASVSGSPGQSITISCTGTSSDVGGYNFVSWYQQHPGKAPKVMIYDVSKRPSGISNRFSGSKSGNTASLTISGLQVEDEAEYYCSSYTSTRTVIFAGGTKVTVLGSRGGGGSGGGGSGGGGSLEMAQVQLVQSGAEVKKPGASVKVSCKASGYTFTSYYMHWVRQAPGQGLEWMGIINPSGGSTRYAQKFQGRVTMTRDTSTSTVYMELSSLRSEDTAVYYCARGSSRWGGWTGDYWGQGTLVTVSS
notes: also called ET150-21 scFv
B15: ET150-030 scFv (scFv)
scFv: AELQSVLTQPPSVSGAPGQRVTISCTGSSSNIGAGYDVHWYQQLPGRAPKLLIYGNSNRPSGVPDRFSGSKSGTSASLAITGLQAEDEADYYCQSYDSSLRGYVFGTGTKVTVLGSRGGGGSGGGGSGGGGSLEMAQVQLVQSGGGVVQPGRSLRLSCAASGFSFSGTAMHWVRQAPGKGLEWVSTISSTGRSTYYRDSVKGRFTISRDNSKNTLYLQMNSLRGEDTAVYYCARPVSSMTLSIQSDGWGQGTLVTVSS
notes: also called ET150-180 scFv
B16: ET150-026 scFv (scFv)
scFv: AELSYELTQPPSASGTPGQRVSISCSGSSSNIGSNTVNWYQQFPGTAPKLLIHSNNQRPSGVPDRFSGSKSGTSASLAISGPQSEDEADYYCAAWDDSVNGYVFGTGTKVTVLGSRGGGGSGGGGSGGGGSLEMAQLQLQESGGGSVQPGGSLRLSCAASGFTFSNYAMSWVRQAPGKGLEWVSAITNSGRSTYYADSVKGRFTISRDNSKNTLSLQMSSLRAEDTAVYYCARVTHRRYGSTFDSRGQGTLVTVSS
notes: also called ET150-176 scFv
B17: ET150-163 scFv (scFv)
scFv: QSVVTQPPSVSGAPGQRVTISCTGSSSNIGAGYDVHWYQQLPGTAPKLLIYGNSNRPSGVPDRFSGSKSGTSASLAITGLQAEDEADYYCQSYDSSLSGSYVFGTGTKLTVLGSRGGGGSGGGGSGGGGSLEMAEVQLVETGGNLVQPGASLRLSCAASGFSFSGTAMHWVRQAPGKGLEWVSTISSTGRSTYYRDSVKGRFTISRDNSKNTLYLQMNSLRGEDTAVYYCARVSFDYWGQGTLVTVSS
notes: also called ET150-13 scFv
B18: ET150-031 scFv (scFv)
scFv: AELQSVVTQPPSVSAAPGQRVTISCSGGSSNIGNNYVSWFQQLPRTAPKLLIYDNNKRPSGIPDRFSGSKSGTSAALDITVLQTGDEADYYCGTWDSSLRNWVFGGGTKLTVLGSRGGGGSGGGGSGGGGSLEMAQMQLVQSGAEVKKPGASVKVSCKASGYTFTSYYMHWVRQAPGQGLEWMGIINPSGGSTSYAQKFQGRVTMTRDTSTSTVYMELSSLRSEDTAVYYCARGQKYHSQYSRGGTGGGMTQDMWGQGTLVTVSS
notes: also called ET150-181 scFv
B19: ET150-160 scFv (scFv)
scFv: QSALTQPASVSGSPGQSITISCTGTSSDVGGYNYVSWYQQHPGKAPKLMIYDVSKRPSGVSNRFSGSKSGNTASLTISGLQAEDEADYYCSSYTRSSTEVFGGGTKLTVLGSRGGGGSGGGGSGGGGSLEMAEVQLVQSGAEVKKPGASVKVSCKASGYTFTSYYMHWVRQAPGQGLEWMGIINPSGGSTSYAQKFQGRVTMTRDTSTSTVYMELSSLRSEDTAVYYCARGGSKKWSGEKWRRENFDYWGQGTLVTVSS
notes: also called ET150-10 scFv

The target in the assay is T1, human G-protein coupled receptor family C group 5 member D (GPRC5D) (human, UniProt Q9NZD1 1-345).
T1 construct: Overexpressed on 3T3 cells in the FACS assays; also called human GPRC5D; 3T3-GPRC5D
T1 sequence (Q9NZD1 whole entry): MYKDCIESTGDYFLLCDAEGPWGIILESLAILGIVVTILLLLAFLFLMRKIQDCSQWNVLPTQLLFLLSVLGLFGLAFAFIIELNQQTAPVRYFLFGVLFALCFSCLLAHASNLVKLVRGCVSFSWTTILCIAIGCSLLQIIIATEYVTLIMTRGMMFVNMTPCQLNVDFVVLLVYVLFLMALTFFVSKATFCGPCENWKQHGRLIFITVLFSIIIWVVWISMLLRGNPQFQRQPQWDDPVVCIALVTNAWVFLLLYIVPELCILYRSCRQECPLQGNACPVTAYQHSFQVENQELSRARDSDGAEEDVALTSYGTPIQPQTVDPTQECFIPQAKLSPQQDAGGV
In words: FACS, scFv phage clones on 3T3 cells overexpressing GPRC5D.
For the molecule B1, the binding result is listed as “binds”. For the molecule B2, the binding result is reported as “binds”. With B3, the binding result was “binds”. For the molecule B4, the binding result is reported as “binds”. Turning to B5, the binding result was “binds”. As for B6, the entry is “binds”; as for B7, “binds”.

In the case of B8, the binding result was “binds”.

For B9, the binding result is “binds”. Turning to B10, the binding result was “binds”. B11: the binding result is “binds”. Turning to B12, the binding result is “binds”. As to B13, the binding result was “binds”. As for B14, the binding result is “binds”. As for B15, the entry is “binds”; as for B16, “binds”; as for B17, “binds”. B18: the binding result is “binds”. For B19, the binding result was “binds”.
